Consider 14 sequences from a protein production outcome set (Wang et al. 2014).

The data set in a line: label from the status in PepcDB records.
Take “MIIKNKMVKRLISTFLMSLLLASMMLVIGAGNVYAQGSVSSTSLQVSADGSDYYIIGSDFYNHFVRPTTVDLAKNKVVYNKQILTVYNGRIDKWKMSFLNQDSSGKSWFKFLSYPEATKGDIKITYTTDGINYSDSKPSLEQLKGYMVELLKPIVYPDDANNQENDIEVSFQLSPDTDYILSNSNLNKQFIPFSGENWLQNYSPYPFFTDRNQLQFVYPDYSKGVMVKYVDEEGNEIHDPQTISGSKGDVYDASTDQYKLVLDGYTLDTSKLPQNSIGNFKEALQTVTYVFSKNPVLAADVTVRYVDKENNPISEDIILQGNIGENYYTDKKILKIIL”: the protein production entry is recorded as “failed”.

Regarding “MIIKPAGDSAFLISFGDEISEEINDRVHSLAKAIEKESPEWLVELVPAYSSLLVIYDPLKASYEEVESYLKRISAREVERIKGKTIEIPVAYGGEFGPDIEFVAQYNGLSVDDVIEIHSKPLYRVYFLGFLPGFAYLGGMDERIATPRLEKPRLKVPAGSVGIAGKQTGWYAIESPGGWRIIGRIPLRTFNPGKVPPSIVLPGDYVKFVPIDEKEFWEIYGREWE”, the protein production entry is recorded as “not failed”.

On to “MIILRRLSKEKHHQVNPLWHIYRKIKFVKVLKQTLIIEIARFVPSMKLKNKIYKKLLKMDVGNHTSFAYKVLPDLFYPEYISVGKNTVIGYNTTILTHEVLVDEWRVGKVIIGDYTLIGANTTILPGITIGNHVKIGAGTVVSKDVPDYSFAFGNPMQIQLDSGGDNEWHKKKITSFQ”, for which the protein production result was “failed”.

In the case of “MIIQIVLWDCYTVPYFCFEKRRFMEELKFEELELCPEILKAVKHMGFEEASPIQSKAIPVIMSGKDVIGQAQTGTGKTAAFGIPLLEKIDPKNKKLQAIVLCPTRELAIQVAEEIRNLAKYMHGIKVLPIYGGQEIVKQIRSLKSGTQLVIGTPGRVMDHMRRKTMKMDHVHTIVLDEADEMLNMGFREDIETILEGIPQEHQTVLFSATMPKAILEITKQFQTNAELVKVTKKELTVPNIEQFYYEVKPKNKEEVLSRLLDIYTPKLSVVFCNTKKQVDLLVNGLLGRGYFAAGLHGDMKQAQRDRVMQGFRSGKTDILVCTDVAARGIDVDDVEAVFNYDLPQDDEYYVHRIGRTGRAGRVGRSFSFVSGREVYKLKEIQRYCKTKIYAQKVPSLNDVANTKMENVLEEIEQIIENEDLTKFLQIIEERVNESDYTAMDLAAAFLKYCSGQQETEEKDMEFGDTGAEEAGMVRLFINIGKKNKAKPGDIVGAIAGESGIPGKLIGTIDMFDKYTFVEVPREYARDVLNAMNHTKIKGKSVAVEPANQK”, the protein production result is given as “failed”.

Turning to “MIIRIKHYGEVKIEDSKNLLLNLIENRIGIDNICNGKGTCGKCKVRFRQGVPEATSADLRYLSVEELEEGVRLACQVKPQKGMEIDVTLSNSFDRKNTVLEHHHHHH”, the protein production result is “failed”.

With “MIISSLTNPNFKVGLPKVIAEVCDYLNTLDLNALENGRHDINDQIYMNVMEPETAEPSSKKAELHHEYLDVQVLIRGTENIEVGATYPNLSKYEDYNEADDYQLCADIDDKFTVTMKPKMFAVFYPYEPHKPCCVVNGKTEKIKKLVVKVPVKLI”, the protein production entry is “not failed”.

As for “MIITVASFKGGVGKTTTAVHLSAYLALQGETLLIDGDPNRSATGWGKRGSLPFKVVDERQAAKYAPKYQNIVIDTQARPEDEDLEALADGCDLLVIPSTPDALALDALILTIETLQKLGNNRFRILLTIIPPYPSKDGDEARQLLTTAGLPLFKRGIKRYSAFQKASLNGVVVSEVSDSKAGIAWSDYKATGKEIVEEILILEHHHHHH”, the protein production result is listed as “not failed”.

With “MIIWQPDQKINNGRFIIQGKPLGEGGFGITYKALEPSTGKLYAIKTLNQQMQLLRSDFAEQQIKFINEALTIKGFDHPHILKVHEVIQEGELFGVVMEYIDGVTLFEYVQDKGQLSETEALLYVNQIGQALELIHQKQHLHRDIKPENILLRHTTRKAILIDFGLAREFTIDQTGSMTNAKTEGYAPPEQYERRGRFDAYVDVYALAATLYNLLTGKVPLPVNFRKAGIPLPPPKQFNSQISQRVNDAILKGMELEPQERTPTVLEFRKNLGLVSSGGAEVQLKSSVGMDYRQLRDLLAVGKWKEADAETARVMLAAMKREKEGWLREEDTWFFPCEDLRTIDQLWVKYSNGRFGFSVQKRIYQSLGGKRSYDEEIWRAFGDKVGWRKGGEWLYYKDITFDITAPEAHLPCYTLTIPYTSRGEVGYTDYSPGFGLWWWWGGGLFSRVETCKM”, the protein production entry is reported as “failed”.

As to “MIIYILINIAIVLLILGFDLYRHRFRQLKFSSILLSVLINSMIDIFAINQFNFITMFTVTLFMIWTLLQIYLNFKLYPFVISDQKFIAIILAIVISLLQFITDKSSTQSVYMSIPYLSPTIFIIGAILLFVGTFKIDEVERLSLFRKIKRPMTTGTIIIILSLISTMILTPFWYVFLIIYSLLIGFILWQGVFFIKDKK”, the protein production entry is listed as “failed”.

Regarding “MIKEARLNDYMGDEVWYVPATRNMLNMLGIRTHYIDNNSTGVNIFLKEPLYVGKVVINIYGIKIEKSVREYPKIPELVRKLGINIEYLPFNYTKNESYWENLKLKIWEIAERNGFLEYETYSKFPGVYYVIPVENYERFMKELSNFSDIVVVPGYKYPDEENIHKYLNTEHPFLGKDLIALGMLANDKPLYWRLPGIIEHALIVLIVAFVSYKIARSYLATLISATFVALDPLLFATGIVAMLDIHVAFFVALFMLFLTIRRLRISGISLGLAAATKLSGAFVFPILWAKILKEEDLKEFIISGVVLPVIAFLVPEIPIIKAIGFIPWLEEFMGSFSWHLSFKGEHPAEAPFWLWFISLKPFPFHFNPDVYAVTDPILMISMIAFIFAVPYVSLRRKGLGEIFWMFWSIIGFFALQYILGGKTQFIFYATPLVPPGAVALGVISYEIIKWEYFERSVKIYMNYLRSLKEFIKR”, the protein production result is listed as “failed”.

For the sequence “MIKILGHHISTLSITLALYETLIFMCVLYSFIFIMSFFFNIPVPEKLSMVILLALTATIAAGSLGLYNQRLFGDFKEFIWRIALTLPLILLAVLFVSFAYGEITATDQSPFYLAAAFGIPAALLLVVLGRGICFRIPGIKAFRRRILVLGTGEMADRLAALETSQPYRHYEIIGFVALGDDPAPLGEKWRVFDRNCIETRHDLLKICADHNINEVIFAASERRRANSSTFGLPVWDLLECRLMGIHVAEYASFWERETGRIDLDHLRPGWLIFSEGFRNSSRRMIAKRFFDVITALLLVILSLPVLVAAAIAVKLSSPGPVFYRQERVGVNGKPFNLIKFRSMPIDAEKNGPVWGTVKDKRATGVGSLLRRTRIDEIPQVFNVLRGDMSFIGPRPERPVFVEELSRELDFYGERHAVRPGISGWAQINYPYGASVADAKQKLSYDLYYIKNGSLFLDIIILFQTFRVVLWPEGSKEKAGAVVR”, the protein production entry is listed as “failed”.

“MIKKNNLILIKLKNSMKKMIKIAFVAAFVAIAGYGVYTNQKSETLSDLTLANVEALAGGESGGYYCCSPYSYECYRIVGGGIVHGLRLPLPC”: the protein production result is recorded as “failed”.

Take “MIKLIHNANIVLEDMILENGHLIIEGDTIKKVSNDKIDYAFDFNEIDEIIDAKNLYVIPGIIDIHSDAIEKEIEPRPSTLLPFNMAFYELDKKLPANGITTVYHSISLGDGVGVRSIDNSLKMIKNIDSYKNIDSKSINHKVHLRYEVLYYEGLEKVLELLDENKIDYLSIMDHSPGQGQYTNPTFYKEYATKVWGVTENYVDTWLDDLVNLHDNLDWNKIANIIGIAKTKNINVASHDDDTLEKMDFIKNIGINVSEFPITLEVAKHSKKLGVLTCLGAPNIVRGKSHNNNLKAMDAILEDCCDIVCSDYLPSAMIKSMCIVAERINNLNKAVSLFTSNPAKAVGIYDERGSIKENKKADLVLVDIDSEYPKVVNTIVNGKTVYKREV”: the protein production result is “failed”.

Regarding “MIKLIVSDLDETLVGPDGNVSEENIEAIKKATQKGVKFVPNTGRGFESVQPLLETLGLKGKANEFVISYNGGVIVENQNFDVIQANAFSFEQATQIFDITKQHLENSTHIYTLNDVYVFNEVEEDNEYIRSRGVRTIRFEHDNLDTLKDEPIFKIITMNPDFNKRKQIKAEVLDKVNFDVNATFSSDRYTEFNLKGVDKGQASLELGRHLGIKADEIMALGDNNNDVAMLKSVGLPVVVSNASASAKANAKYIAKGNYETGVAEAINKFVLGE”, the protein production result is given as “failed”.
